Assay results reported in patent publication US20220127316A1 (University of Pennsylvania, published 2022).

Target: T1, recombinant human GFRα-like His-tag receptor (R&D 9647-GR-050) (human, UniProt Q6UXV0 19-351)
T1 construct: Bought protein, captured on a Pierce nickel coated plate at 0.1 µg/mL; also called GFRAL receptor; GDNF family receptor alpha-like; not shown: His-tag
T1 sequence (looked up): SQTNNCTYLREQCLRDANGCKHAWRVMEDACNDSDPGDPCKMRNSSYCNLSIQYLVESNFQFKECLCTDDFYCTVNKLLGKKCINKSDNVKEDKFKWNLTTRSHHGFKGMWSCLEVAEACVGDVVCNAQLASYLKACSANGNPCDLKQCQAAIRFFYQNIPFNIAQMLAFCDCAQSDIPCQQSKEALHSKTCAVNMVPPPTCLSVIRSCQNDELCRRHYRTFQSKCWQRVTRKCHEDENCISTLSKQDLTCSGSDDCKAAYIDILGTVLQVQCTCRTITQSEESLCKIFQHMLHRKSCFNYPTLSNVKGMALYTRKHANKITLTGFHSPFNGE
Assay: ELISA; His-tagged GFRAL captured on nickel coated plate, GDF15 titrated 100 to 0.005 ng/mL, detected with anti-GDF15 primary antibody
Experimental: To validate binding of the synthesized peptides to the GFRAL receptor, an ELISA assay was developed to determine the binding affinity of the peptides for their receptor. The primary antibody (Abcam ab206414) was diluted to 1 μg/mL. The secondary antibody was diluted by placing 5 μL into 10 mL assay buffer. GDF15 was run at concentrations of 100 ng/mL to 0.005 ng/mL. The recombinant human GFRα-like His-tag receptor (R&D 9647-GR-050) was added to the Pierce™ nickel coated plate (ThermoFisher Scientific 15442) at 0.1 μg/mL in a total volume of 100 μL.

Kd: 1.03 ng/mL
B1: Recombinant human GDF-15 (rhGDF15) (ligand, UniProt Q99988 197-308, looked up)
chain: ARNGDHCPLGPGRCCRLHTVRASLEDLGWADWVLSPREVQVTMCIGACPSQFRAANMHAQIKTSLHRLKPDTVPAPCCVPASYNPMVLIQKTDTGVSLQTYDDLLAKDCHCI
notes: Run at 100 ng/mL to 0.005 ng/mL in the ELISA and detected with primary antibody Abcam ab206414; also called growth and differentiation factor 15; MIC-1
